Here are results for 41 sequences from the nanobody polyreactivity screen of Harvey et al. (2022).

The data set is described as follows: yeast display, Sf9 membrane polyspecificity reagent, FACS + sequencing; frameworks hold sequencing errors. A digest of the protocol: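 A synthetic nanobody library was expressed on Saccharomyces cerevisiae BJ5465 by galactose induction for 36–48 hours. The library was stained for 1 hour at 4 °C with 10% biotinylated, detergent-solubilized Sf9 membrane reagent and enriched with streptavidin microbeads before FACS. Low and high (top ~1%) gates were set on anti-HA fluorescence for expression and streptavidin fluorescence for reagent binding, and each polyreactivity label reflects the gate of origin.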
“QVQLVESGGGLVQAGGSLRLSCAASGSIFQRYTMGWYIQAPGKERELVAAISWSGDGTYYADSVKGRFTISRDNAKNTFYLQMNSLKPEDTAVYYCNDGYTRRYRFRVENDYDYWGQGTQVTVSS”: the “polyreactivity (PSR sort gate)” value was “high polyreactivity”.

In the case of “QVQLVESGGGLVQAGGSLRLSCAASGSIFQSNAMGWSRQAPGKERELVAAISSRGGRTYYADSVKGRFTISRDNAKYTVYLQLNSLKPEDTAVYYCAVVPFTEHDYWGQGTQVTVSS”, the “polyreactivity (PSR sort gate)” value is recorded as “high polyreactivity”.

Regarding “QVQLVESGGGLVQAGGSLRLSCAASGSIFQSYAMGWYRQAPGKERELVAGISSDGSTYYADSVKGRFTISRDNAKNTVYLQMNSLKPEDTAVYYCAAERWGNPTDYQFWRPYDYWGQGTQVTVSS”, the “polyreactivity (PSR sort gate)” value is “low polyreactivity”.

Turning to “QVQLVESGGGLVQAGGSLRLSCAASGSIFQVNAMGWYRQAPGKERELVAANRSGGRTTYADSVKGRFTISRDNAKNTVYLQMISLKTEDTAVYYGAAPLYYKSWTYPRLRSGYWGQGTQVTVSS”, the “polyreactivity (PSR sort gate)” value was “high polyreactivity”.

For the sequence “QVQLVESGGGLVQAGGSLRLSCAASGSIFQWNAMGWYRQAPGKERELVAAMSWSGTRTYYADSVKGRFTISRDNAKNTVYLQMNSLKPEDTAVYDCAFRGGKPTYRYDYWGQGTQVTVSS”, the “polyreactivity (PSR sort gate)” value was “high polyreactivity”.

As to “QVQLVESGGGLVQAGGSLRLSCAASGSIFQWYAMGWYRQAPGKERELVAAITISGTRTYYADSVKGRFTISRDNAKYTVYLQMNSLKPEDTAVYYCAATEGGRFRRIADASMYYWGQGTQVTVSS”, the “polyreactivity (PSR sort gate)” value is given as “high polyreactivity”.

Take “QVQLVESGGGLVQAGGSLRLSCAASGSIFQYNAMGWSRQAPGKERELVAAISSRGGITYYADSVKGRFTISRDNAKNTVYLQMNSLKPEDTAVYYCAAEAYYSEVRWYEYWGQGTQVTVSS”: the “polyreactivity (PSR sort gate)” value was “high polyreactivity”.

Regarding “QVQLVESGGGLVQAGGSLRLSCAASGSIFQYNAMGWYREAPGHEWELVAVISRSGSRTYYADSVKGRFTISRDNAKNTVYLQMNSLKPEDTAVYYCAADIWFYTYYGYDYWGQGTQVTVSS”, the “polyreactivity (PSR sort gate)” value is reported as “high polyreactivity”.

Regarding “QVQLVESGGGLVQAGGSLRLSCAASGSIFQYNAMGWYRQAPGKEREFVADISYSGGTTDYADSVKGRFTISRDNAKNTVYLQMNRLKPEDTAVYYCNADLSSGYPYSYYSATEYDYWGQGSQVTVSS”, the “polyreactivity (PSR sort gate)” value is given as “low polyreactivity”.

Take “QVQLVESGGGLVQAGGSLRLSCAASGSIFQYNAMGWYRQAPGTERELVAAITWTGTSTYADSVKGRFTISRDNAKNTVYLQMNSLKPEDTAVYYCAARYYAPRWFRYDYWGQGTQVTVSS”: the “polyreactivity (PSR sort gate)” value is recorded as “low polyreactivity”.

Consider “QVQLVESGGGLVQAGGSLRLSCAASGSIFQYNAMGWYRQVPGKERELVAAITSGGSTYADSVKGRFTISRDNAKNTVYLQMNSLKPEDTAVYYCNADRWFGNYLHLTFLNDYWGQGTQVTVSS”, for which the “polyreactivity (PSR sort gate)” value is listed as “low polyreactivity”.

For “QVQLVESGGGLVQAGGSLRLSCAASGSIFQYNVKGWYRQEPGKEREFVADISSSGGSTYYADSVKGRFTISRDNAKNTVYLQMNSLKPEDTAVYYCNADPGYVFYRDEYWGQGTQVTVSS”, the “polyreactivity (PSR sort gate)” value was “low polyreactivity”.

On to “QVQLVESGGGLVQAGGSLRLSCAASGSIFRANAMGGYRQAPGKERELVATISSGGSTNYADSVKGRFTISRDNAKNTVYLQMNSLKPEDTAVYYCAVKWYPPGHDYWGQGTQVTVSS”, for which the “polyreactivity (PSR sort gate)” value was “low polyreactivity”.

As for “QVQLVESGGGLVQAGGSLRLSCAASGSIFRANAMGWYRQAPGKERELVAAISYSGGSTYYADSVKGRFTISRDNAKNTVYLQMNTLKPEDTAVYYCAAEFLYASVYYSYWGQGTQVTVSS”, the “polyreactivity (PSR sort gate)” value was “high polyreactivity”.

For “QVQLVESGGGLVQAGGSLRLSCAASGSIFRANVLGWYRKAPGKERELVAAISRGGGTTYYADSVKGRFTISRDNAKNTVYLQMNSLKPEDTAVYYCAALGHYRSNNNVDMDYWGQGTQVTVSS”, the “polyreactivity (PSR sort gate)” value is reported as “high polyreactivity”.

“QVQLVESGGGLVQAGGSLRLSCAASGSIFRAYALGWYRQAPGEERELVAAISWRAGRTYYADSVKGRFTISRDNAKNTVYLQMNSLKPEDTAVYYCAARKRAQQGTRDHDYWGQGTQVTVSS”: the “polyreactivity (PSR sort gate)” value was “high polyreactivity”.

On to “QVQLVESGGGLVQAGGSLRLSCAASGSIFRAYAMGWYRQAPGKERELVAAISIGGRTYYADSVKGRFTISRDNAKNTVYLQMNSLKPEDTAVYYCAAVRSYVKGGMYYWGQGTQVTVSS”, for which the “polyreactivity (PSR sort gate)” value is given as “low polyreactivity”.

As to “QVQLVESGGGLVQAGGSLRLSCAASGSIFRAYAMGWYRQAPGKERELVAAISWGGGSTSYADSVKGRFTISRDNAKNTVYLQMNSLKPEDTAVYFCNKVSFSKRRDYYWGQGTQVTVSS”, the “polyreactivity (PSR sort gate)” value is reported as “high polyreactivity”.

Regarding “QVQLVESGGGLVQAGGSLRLSCAASGSIFRAYAMGWYRQAPGKERELVAAISWGGGSTSYADSVKGRFTISRDNAKNTVYLQMNSLKPEDTAVYYCNKVSFSKRRDYYWGQGTQVTVSS”, the “polyreactivity (PSR sort gate)” value is on record as “high polyreactivity”.

With “QVQLVESGGGLVQAGGSLRLSCAASGSIFRAYAMGWYRQAPGKERELVAAITRGGSTNYADSVKGRFTISRDNAKNNVYLQMKSLKPEDTAVYYCAAQNYWYYPRRFDYWGQGTQVTVSS”, the “polyreactivity (PSR sort gate)” value is “high polyreactivity”.

With “QVQLVESGGGLVQAGGSLRLSCAASGSIFRAYAMGWYRQAPGKERELVAGITKSGGSTYYADSVKGRFTISRDNAKNTVYLQMNILKPEDTAVYYCAAYRSRTYGYWGQGTQVTVSS”, the “polyreactivity (PSR sort gate)” value was “high polyreactivity”.

Take “QVQLVESGGGLVQAGGSLRLSCAASGSIFRAYTMGWYRQAPGKERELVAAINWSGGSTYYADSVKGRFTISRDNAKNTVYLQMNSLKPEDTAVYYCAKRWASWRYDYWGQGTQVTVSS”: the “polyreactivity (PSR sort gate)” value is “high polyreactivity”.

On to “QVQLVESGGGLVQAGGSLRLSCAASGSIFRDNAMGWYRQAPGKERELVAAINVRDGDTFYADSVKGRFTISRDNAKNTVYLQMNSLKPEDTAVYYCAVPGATSYFAYDSWGQGTQVTVSS”, for which the “polyreactivity (PSR sort gate)” value is “low polyreactivity”.

Consider “QVQLVESGGGLVQAGGSLRLSCAASGSIFRFKAMGWYRQAPGKERELVAAITSSGGSTYYADSVKGRFTISRDNAKNTVYLQMNSLKPEDTAVYYCAAGARRVGRYYWGQGTQVTVSS”, for which the “polyreactivity (PSR sort gate)” value is recorded as “high polyreactivity”.

As for “QVQLVESGGGLVQAGGSLRLSCAASGSIFRFYAMGWYRQAPGKERELDAVITSTGRKYYADSVKGRFTISRDNAKNTGYLQMTSLKPEDTAVYYCNAAEAGKGAYAYDYWGQGTQVTVSS”, the “polyreactivity (PSR sort gate)” value was “low polyreactivity”.

On to “QVQLVESGGGLVQAGGSLRLSCAASGSIFRFYAMGWYRQAPGKERELVAAITSGGSTNYADSVKGRFTISRDNAKNTVYLQMNSLKPEDTAVYYCAAELVYFFIYDYWGQGTQVTVSS”, for which the “polyreactivity (PSR sort gate)” value is recorded as “low polyreactivity”.

On to “QVQLVESGGGLVQAGGSLRLSCAASGSIFRFYGMGWYRQAPGKERELVATISWSSGRTSYADSVKGRFTISRDNAKNTVYLQMKSLKPEDTAVYYCNADQWDKSYDYWGQGTQVTVSS”, for which the “polyreactivity (PSR sort gate)” value is listed as “high polyreactivity”.

On to “QVQLVESGGGLVQAGGSLRLSCAASGSIFRFYTMGWYRQAPGKERELVAAIRYRGTSTYYADSVKGRFTISRDNAKNTVYLQMNSLKPEDTAVYYCATRNIYFSSVDYWGQGTQVTVSS”, for which the “polyreactivity (PSR sort gate)” value is “high polyreactivity”.

For “QVQLVESGGGLVQAGGSLRLSCAASGSIFRGNAMGWYRQAPGKERELVAAINKSGGSTYYADSVKGRFTISRDNAKNTVYLQMNSLKPEDTAVYYCAAVYKRLQPYGYWGQGTQVTVSS”, the “polyreactivity (PSR sort gate)” value is recorded as “high polyreactivity”.

For the sequence “QVQLVESGGGLVQAGGSLRLSCAASGSIFRGNAMGWYRQAPGKERELVAAISGSAGRTYYADSVKGRFTISRDNAKNTVYLQMNSLKPEDTAVYYCAADSFKGYDYWGQGTQVTVSS”, the “polyreactivity (PSR sort gate)” value is recorded as “high polyreactivity”.

Take “QVQLVESGGGLVQAGGSLRLSCAASGSIFRGNAMGWYRQAPGKERELVAAISKSGGSTYYADSVKGRFTISRDNAKNTVNLQMNSLKPEDTAVYYCAARTTYLYGMYYWGQGTQVTVSS”: the “polyreactivity (PSR sort gate)” value is listed as “low polyreactivity”.

On to “QVQLVESGGGLVQAGGSLRLSCAASGSIFRGNSMGWYRQAPGKERELVAVITWSGGSTYYADSVKGRFTISRDNAKNTVYLQMNSLKPEDTAVYYCNAARKQRVYFAGDYWGQGTQVTVSS”, for which the “polyreactivity (PSR sort gate)” value is “high polyreactivity”.

Turning to “QVQLVESGGGLVQAGGSLRLSCAASGSIFRGYAMGWYRQAPGKERELVAAITKIGASTYYADSVKGRFTISRDNAKNTVYLQMYSLKPEDTAVYYCNKDRGITPYRAYWGMDYWGQGTQVTVSS”, the “polyreactivity (PSR sort gate)” value is “low polyreactivity”.

For the sequence “QVQLVESGGGLVQAGGSLRLSCAASGSIFRGYAMGWYRQAPGKERELVAAITKRGGNTYYADSVKGRFTISRDNAKNTVYLQMNSLKPDDTAVYYCAKAGWGKWVYAQMDYWGQGTQVTVSS”, the “polyreactivity (PSR sort gate)” value is recorded as “high polyreactivity”.

Turning to “QVQLVESGGGLVQAGGSLRLSCAASGSIFRGYAMGWYRQAPGKERELVAAITSSGGSTNYADSVKGRFTISRDNAKNTVYLQMNSLKPEDTAVYYCAKAPGLWHLIQRMDYWGQGTQVTVSS”, the “polyreactivity (PSR sort gate)” value is “low polyreactivity”.

As to “QVQLVESGGGLVQAGGSLRLSCAASGSIFRGYTMGGYRQAPGKETELVAAISRSGGSTYYADSVKGRFTISRDNAKNTVYLQMNSLKPEDTAVYYCAADSFRTRAIYDYWGQGTQVTVSS”, the “polyreactivity (PSR sort gate)” value is recorded as “high polyreactivity”.

Consider “QVQLVESGGGLVQAGGSLRLSCAASGSIFRHYTMGWYRQAPGKERELVAVISSGGNTNYADSVKGLFTISRDNAKYTDYLQLNSLKPEDTAVYYCAAGGYDVYHDPYYYWGQGTQVTVSS”, for which the “polyreactivity (PSR sort gate)” value is reported as “high polyreactivity”.

As for “QVQLVESGGGLVQAGGSLRLSCAASGSIFRINAMGWYRQAPGKERELVAAISTSGGTTYYADSVKGRFTISRDNAKNTVYLQMNSLKPEDTAVYYCSARRVTSPFGSDSWGQGTQVTVSS”, the “polyreactivity (PSR sort gate)” value is “low polyreactivity”.

For the sequence “QVQLVESGGGLVQAGGSLRLSCAASGSIFRIYAMGWYRLEPGKERELVSGISKSVGSTYYADSVKGRFTISRDNAKNTVYLQMNSLKTEDTAVYYCNARRPSWGLDKYDYWGQGTQVTVSS”, the “polyreactivity (PSR sort gate)” value was “low polyreactivity”.

Consider “QVQLVESGGGLVQAGGSLRLSCAASGSIFRIYAMGWYRQAPGKEREFVAAISSRGGRTYYADSVKGRFTISRDNAKNTVYLQMNSLKPEDTAVYYCNARATRGSYYEYEYWGQGTQVTVSS”, for which the “polyreactivity (PSR sort gate)” value was “high polyreactivity”.

In the case of “QVQLVESGGGLVQAGGSLRLSCAASGSIFRIYAMGWYRQAPGKERELVAAISRGSTRTYYADSVKGRFTISRDNAKNTVYLQMNSLKPEDTAVYYCAKRGISPYGYWGQGTQVTVSS”, the “polyreactivity (PSR sort gate)” value is “high polyreactivity”.
